The values below come from publication PMC3526301.

Sequences and labels used below:
B1: TBV-08 without primer sites (structured_DNA)
DNA: GGTTGGTGTGGTTGGTGAGACCTTGCATGCGACTTGGTGAGCACGTGAGAAGTCCGTGGTAGGGCAGGTTGGGGTGACT
B2: TBV-08 (clone 8) (structured_DNA)
DNA: AGCAGCACAGAGGTCAGATGGGTTGGTGTGGTTGGTGAGACCTTGCATGCGACTTGGTGAGCACGTGAGAAGTCCGTGGTAGGGCAGGTTGGGGTGACTCCTATGCGTGCTACCGTGAA
B3: clone 2 (structured_DNA)
DNA: AGCAGCACAGAGGTCAGATGGGTTGGTGTGGTTGGCTGATACCGGAAGGGGTGTGTGTAGCGCGGTTGAGAGTCCGTGGTAGGGCAGGTTGGGGTGACTCCTATGCGTGCTACCGTGAA
B4: clone 5 (structured_DNA)
DNA: AGCAGCACAGAGGTCAGATGGGTTGGTGTGGTTGGCATTTTGACCGAATGACGTTAGCAAAATATGTTAGAGTCCGTGGTAGGGCAGGTTGGGGTGACTCCTATGCGTGCTACCGTGAA
B5: clone 7 (structured_DNA)
DNA: AGCAGCACAGAGGTCAGATGGGTTGGTGTGGTTGGCTCTGATAACCCGGGGCTGTGGTGCGCCAGGTAGGAGTCCGTGGTAGGGCAGGTTGGGGTGACTCCTATGCGTGCTACCGTGAA
B6: clone 3 (structured_DNA)
DNA: AGCAGCACAGAGGTCAGATGGGTTGGTGTGGTTGGTGAGTCGACTGTGTGCCTCAAGTAGAACGTAGGTGAGTCCGTGGTAGGGCAGGTTGGGGTGACTCCTATGCGTGCTACCGTGAA
B7: clone 10 (structured_DNA)
DNA: AGCAGCACAGAGGTCAGATGGGTTGGTGTGGTTGGTTTGCCGATGTGTGGACAGCATGTGGGGTAGAGCGAGTCCGTGGTAGGGCAGGTTGGGGTGACTCCTATGCGTGCTACCGTGAA
B8: clone 9 (structured_DNA)
DNA: AGCAGCACAGAGGTCAGATGGGTTGGTGTGGTTGGCATTCGTAACTATGGGGTTCCTGTATTGGTATAGGAGTCCGTGGTAGGGCAGGTTGGGGTGACTCCTATGCGTGCTACCGTGAA
B9: clone 6 (structured_DNA)
DNA: AGCAGCACAGAGGTCAGATGGGTTGGTGTGGTTGGCGAGGACGCTGTGTGCGCTTCGAGGGCCTAGAAGGAGTCCGTGGTAGGGCAGGTTGGGGTGACTCCTATGCGTGCTACCGTGAA
B10: clone 4 (structured_DNA)
DNA: AGCAGCACAGAGGTCAGATGGGTTGGTGTGGTTGGCTGGTCTGGGGGCGTTTACTGGGCGCGCATTTTAAAGTCCGTGGTAGGGCAGGTTGGGGTGACTCCTATGCGTGCTACCGTGAA
B11: clone 1 (structured_DNA)
DNA: AGCAGCACAGAGGTCAGATGGGTTGGTGTGGTTGGAGCGGACTTTACCTGTGTCAGCTGCGGGGGCCGCAAGTCCGTGGTAGGGCAGGTTGGGGTGACTCCTATGCGTGCTACCGTGAA

The target of one data set is T1, human alpha-thrombin (Homo sapiens, UniProt P00734;P00734 315-363;364-622). In words: bead-based fluorescence binding; apparent Kd; Figure S7 legend gives 430 pM; 50 mM Tris, 100 mM NaCl, 1 mM MgCl2, 5 mM KCl, 1 mM CaCl2, 0.01% Tween 20, pH 7.5 (selection buffer), 1 h room temperature, wa.
As to B1, the Kd stood at 0.44 nM.

A further data set deals with T1, human alpha-thrombin. In words: bead-based fluorescence binding; apparent Kd; 50 mM Tris, 100 mM NaCl, 1 mM MgCl2, 5 mM KCl, 1 mM CaCl2, 0.01% Tween 20, pH 7.5 (selection buffer), 1 h room temperature, wa.
Turning to B2, the Kd turned out to be 0.0081 nM.

The target in another data set is T1, human alpha-thrombin. In words: bead-based fluorescence binding; 50 pM aptamer; 50 mM Tris, 100 mM NaCl, 1 mM MgCl2, 5 mM KCl, 1 mM CaCl2, 0.01% Tween 20, pH 7.5 (selection buffer), 1 h room temperature, wa.
Consider B3, for which the binding result is listed as “binds”.
Take B4: the binding result is reported as “binds”.
Same read-out and setting: with B5 the entry was “binds”; with B6, “binds”; with B7, “binds”.
In the case of B8, the binding result is given as “binds”.
Consider B9, for which the binding result is given as “binds”.
On the same count and under the same terms, with B10 the entry was “binds”; with B11, “binds”.
